Test results: the DeepSol protein solubility set

test: soluble on expression in E. coli; label from the status in PepcDB or PDB records

Row | Sequence | soluble on expression in E. coli
1 | MGHHHHHHSHMFEFKHIKAFDRAFADNPGPMVVFATPGMLHAGQSLQIFRKWAGNEKNMVIMPGYCVQGTVGHKILSGQRKLEMEGRQVLEVKMQVEYMSFSAHADAKGIMQLVGQAEPESVLLVHGEAKKMEFLKQKIEQELRVNCYMPANGETVTLPTSPSIPVGISLGLLKREMAQGLLPEAKKPRLLHGTLIMKDSNFRLVSSEQALKELGLAEHQLRFTCRVHLHDTRKEQETALRVYSHLKSVLKDHCVQHLPDGSVTVESVLLQAAAPSEDPGTKVLLVSWTYQDEELGSFSHLC | not soluble
2 | MGHHHHHHSHMGCDGGTIPKRHELVKGPKKVEKVDKDAELVAQWNYCTLSQEILRRPIVACELGRLYNKDAVIEFLLDKSAEKALGKAASHIKSIKNVTELKLSDNPAWEGDKGNTKGDKHDDLQRARFICPVVGLEMNGRHRFCFLRCCGCVFSERALKEIKAEVCHTCGAAFQEDDVIVLNGTKEDVDVLKTRMEERRLRANREKKTKKPKAAESVSKPDVSEEAPGPSKVKTGKPEEASLDSREKKTNLAPKSTAMNESSSGKAGKPPCGATKRSIADSEESEAYKSLFTTHSSAKRSKEESAHWVTHTSYCF | not soluble
3 | MGHHHHHHSHMGRGSGTFERLLDKATSQLLLETDWESILQICDLIRQGDTQAKYAVNSIKKKVNDKNPHVALYALEVMESVVKNCGQTVHDEVANKQTMEELKDLLKRQVEVNVRNKILYLIQAWAHAFRNEPKYKVVQDTYQIMKVEGHVFPEFKESDAMFAAERAPDWVDAEECHRCRVQFGVMTRKHHCRACGQIFCGKCSSKYSTIPKFGIEKEVRVCEPCYEQLNRKAEGK | soluble
4 | MGHHHHHHSHMGSLPSRRKSLPSPSLSSSVQGQGPVTMEAERSKATAVALGSFPAGGPAELSLRLGEPLTIVSEDGDWWTVLSEVSGREYNIPSVHVAKVSHGWLYEGLSREKAEELLLLPGNPGGAFLIRESQTRRGSYSLSVRLSRPASWDRIRHYRIHCLDNGWLYISPRLTFPSLQALVDHYSELADDICCLLKEPCVLQRAGPLPGKDIPLPVTVQRTPLNWKELDSSLLFSEAATGEESLLSEGLRESLSFYISLNDEAVSLDDA | not soluble
5 | MGHHHHHHSHMHVDREFAVVTDMKNSSSVSNTLTNGCVINGHLDFPSTTPLSGMESRNGQCLTGTNGISSGLAPGQPFPSSQGSLCISGTEEPEKTLRANPELCGSLHLNGSPSSCIASRPSWVEDIGDNLYYGHYHGFGDTAESIPELNSVVEHSKSVKVQERYDSAVLGTMHLHHGS | not soluble
6 | MGHHHHHHSHMIMQEIFLCSISNVRSGDCKEDCAYCTQSSHHQGAIKRYKFKDEKVVLQEARALRQLGALGFCLVTSGRELDDEKCEYIAKLAKAINQEELGLHLIACCGRADLEQLEFLRDAGIHSYNHNLETSQNFFPKICSTHTWEERFITCENALRAGLGLCSGGIFGLNESWEDRIEMLRALASLSPHTTPINFFIKNPVLPIDAETLSADEALECVLLAKEFLPNARLMVAGGREVVFKDNDKKEAKLFEYGINAVVLGDYLTTKGKAPKKDIEKLLSYGLTMATSCH | soluble
7 | MGHHHHHHSHMKAFSPVRSVRKNSLSDHSLGISRSKTPVDDPMSLLYNMNDCYSKLKELVPSIPQNKKVSKMEILQHVIDYILDLQIALDSHPTIVSLHHQRPGQNQASRTPLTTLNTDISILSLQASEFPSELMSNDSKALCG | soluble
8 | MGHHHHHHSHMKNLFLTSSFKDVVPLFTEFESNLQGKTVTFIPTASTVEEVVFYVEAGKKALEKLGLFVVELDVATESLDHIAATLRKNDFIYVTGGNTFFLLQELKRTGADKLILEEIAAGKLYIGESAGAVITSPNIAYIQSMDSPKKAEQLTNYDALNLVDFCTLPHYNNIPFKKITQKIVADYTKSLKMHPISNHEAILVRDEEVITKLANGKTD | soluble
9 | MGHHHHHHSHMKNSEESSSSSEDTNNATDTNTSESQDISVNGPEKVGDVYEIDGGTAKVMAISNKETTVKTGPIQFTVKKVIAAVANEQLPFIDVQIESENTSDEVVRFRPSLAQLATSTGVQIDEPSLLESDRLLDEYVGKVNDSGSIIYVFDNEEDIKDLESIRLRISSPFNEDLKNLGDKLDLKINLEH | soluble
10 | MGHHHHHHSHMLKIIRAGMYTTVQDGGRHGFRQSGISHCGALDMPALRIANLLVGNDANAPALEITLGQLTVEFETDGWFALTGAGCEARLDDNAVWTGWRLPMKAGQRLTLKRPQHGMRSYLAVAGGIDVPPVMGSCSTDLKVGIGGLEGRLLKDGDRLPIGKSKRDSMEAQGVKQLLWGNRIRALPGPEYHEFDRASQDAFWRSPWQLSSQSNRMGYRLQGQILKRTTDRELLSHGLLPGVVQVPHNGQPIVLMNDAQTTGGYPRIACIIEADMYHLAQIPLGQPIHFVQCSLEEALKARQDQQRYFEQLAWRLHNEN | not soluble
11 | MGHHHHHHSHMNNRTRLALIICNTEFDHLPPRNGADFDITGMKELLEGLDYSVDVEENLTARDMESALRAFATRPEHKSSDSTFLVLMSHGILEGICGTVHDEKKPDVLLYDTIFQIFNNRNCLSLKDKPKVIIVQACRGANRGELWVRDSPASLEVASSQSSENLEEDAVYKTHVEKDFIAFCSSTPHNVSWRDSTMGSIFITQLITCFQKYSWCCHLEEVFRKVQQSFETPRAKAQMPTIERLSMTRYFYLFPGN | soluble
12 | MGHHHHHHSHMNSIVNGLYTFMSTTVVPAVTEQAANLVGGASALAEGATQALTQISQTALEWGSGSEDATASSEVFSWEQQGAAAASSDLQEDKKETTEDVHQEAIGASSPNTSIEWEVIHENPDETGPIRHNQFEMVQNNYEWMKNSK | not soluble
13 | MGHHHHHHSHMPFTPPVVKRLLGWKKSAGGSGGAGGGEQNGQEEKWCEKAVKSLVKKLKKTGRLDELEKAITTQNCNTKCVTIPSTCSEIWGLSTPNTIDQWDTTGLYSFSEQTRSLDGRLQVSHRKGLPHVIYCRLWRWPDLHSHHELKAIENCEYAFNLKKDEVCVNPYHYQRVETP | soluble
14 | MGHHHHHHSHMPPHPAIFFYCLLRQGLTMLPRLVLNFWAQAVHLPRPPRVLGLQAGGTAPGQKKLFLTSHFPPASPLPLCFSLQQNFKKHSPRSPPGILGSLYPGFCSPIATSPFAKGTRGLRVVGSSGRLSASS | not soluble
15 | MGHHHHHHSHMPSCVVNPMEHTHAATAALPAAGPVNLPTGISRVPTGYPSDLKPVTWNQHQLAHLQQMCSEASGTPAPGLTGKHAAGRELAGPGFVGKAPAYPQELCLAQSFHLKPPLEKPTPSPPVNGMAAPLAYPNGHYFQPLWNNILPTPNSDSSGSQDLAMPFHGGQPTGAPLDCAAAPGAHYRAGTGGGPVASQNSLMQTVDYLSGDFQQACFREQSLAMLSKAHRAPGNRAPDPTESRSLHIQHPGYR | not soluble
16 | MGHHHHHHSHMPSLSTLRMRRCPSSLWIRFGYDPRKNPDAKIYQVLDFRIRCGMKHGYAPSDLPVKAKRSTYNYSLPITVKKTSSQLVTMHDLKQGLGPSGTSGARKPASSKYKLKVSLQTLRDSVYIFREGALPPYRQMFYQLCDLNVEELQKIIHRNDGAENSCTERDGWCLPKTSDELRDTMSLMIRQTIRSKRPALFSSSAKADGGKEQLTYESGEDEEDEEEEEEEEEDFKPSDGSENEMETEILDYV | not soluble
17 | MGHHHHHHSHMPVTEKDLAEDAPWKKIQQNTFTRWCNEHLKCVNKRIGNLQTDLSDGLRLIALLEVLSQKRMYRKYHQRPTFRQMQLENVSVALEFLDRESIKLVSIDSKAIVDGNLKLILGLVWTLILHYSISMPVWEDEGDDDAKKQTPKQRLLGWIQNKIPYLPITNFNQNWQDGKALGALVDSCAPGLCPDWESWDPQKPVDNAREAMQQADDWLGVPQVITPEEIIHPDVDEHSVMTYLSQFPKAKLKPGAPLKPKL | soluble
18 | MGHHHHHHSHMQHLENSSLFEGSLSKNLSLNSQALKENLYYEAGKMLAISLVHGGPSPGFFSKTLFNCLVYGPENTQPILDDVSDFDVAQIIIRINTATTVADLKSIINECYNYLELIGCLRLITTLSDKYMLVKDILGYHVIQRVHTPFESFKQGLKTLGVLEKIQAYPEAFCSILCHKPESLSAKILSELFTVHTLPDVKALGFWNSYLQAVEDGKSTATMEDILIFATGCSSIPPAGFKPTPSIECLHVDFPVGNKCNNCLAIPITNTYKEFQENMDFTIRNTLRLEKEESSHYIGH | not soluble
19 | MGHHHHHHSHMQNEKETMQSLNDRLASYLDRVRSLETENRRLESKIREHLEKKGPQVRDWSHYFKIIEDLRAQIFANTVDNARIVLQIDNARLAADDFRVKYETELAMRQSVENDIHGLRKVIDDTNITRLQLETEIEALKEELLFMKKNHEEEVKGLQAQIASSGLTVEVDAPKSQDLAKIMADIRAQYDELARKNREELDKYWSQQIEESTTVVTTQSAEVGAAETTLTELRRTVQSLEIDLDSMRNLKASLENSLREVEARYALQMEQLNGILLHLESELAQTRAEGQRQAQEYEALLNIKVKLEAEIATYRRLLEDGEDFNLGDALDSSNSMQTIQKTTTRRIVDGKVVSETNDTKVLRH | soluble
20 | MGHHHHHHSHMRTISFFNNKGGVGKTTLSTNVAHYFALQGKRVLYVDCDPQCNATQLMLTEEQTESIYLDGLNDEVAERNSLAKTVYAIFVPLREGESQIAAEITPMRSERFGVDVLPGHPALSQIEDLMSDSWQSALGRQTGPFRRIHWAGQLAHAMERDDRYDVIFFDVGPSLGPFNRTVLLGCDAFVTPTATDLFSFHAFGNLARWFDAWVTQYAEIHEGNMAEWKKYS | not soluble
21 | MGHHHHHHSHMSASYISDPVIAGTNMTWSQEKQSLLMQGEILVETRSHTAWGGAVSACMYLPLRRSQVWQQITDYPRWVQYFPDITKSEVLQRGEVKRLYQAAQKAFFFFTAQVEIYLNVVEVIGHKIQFRMEKGTFVDFTANLELKDCGDGTLLIYGVQATPNIPVPSIFIQQAMNFELPTNMRKMRQVISNSVNS | not soluble
22 | MGHHHHHHSHMSFVECPYHSPAERLVAEADEGGPSAITGMGLCFRCLLFSFSGRSGVEGGRVDLNVFGSLGLQPWIGSSRCWGGPCSSALRCGWFSSWPPPSKSAIPIGGGSRGAGRVSRWPPPHWLEAWRVSPRPL | not soluble
23 | MGHHHHHHSHMSKAIKQNLADSKKMSAELFCLTYGAMVTEMLKDYEDPKDVTIQLDKMGFNMGTRLADDFLAKNANVPRCVDTRQIADVLCRNAIPCYLGISATASSWTSGDREFTITLEANPLTELVQVPAHLVSAGLSYSQLIAGAIRGALEAVHFKVYASATDTGANTEIRIRFDQVLKDSLPAGEDD | soluble
24 | MGHHHHHHSHMSWWDYGYQIAGMANRTTLVDNNTWNNSHIALVGKAMSSNETAAYKIMRTLDVDYVLVIFGGVIGYSGDDINKFLWMVRIAEGEHPKDIRESDYFTPQGEFRVDKAGSPTLLNCLMYKMSYYRFGEMQLDFRTPPGFDRTRNAEIGNKDIKFKHLEEAFTSEHWLVRIYKVKAPDNRETLDHKPRVTNIFPKQKYLSKKTTKRKRGYIKNKLVFKKGKKIFKKTV | not soluble
25 | MGHHHHHHSHMTLRCLEPSGNGGEGTRSQWGTAGSAEEPSPQAARLAKALRELGQTGWYWGSMTVNEAKEKLKEAPEGTFLIRDSSHSDYLLTISVKTSAGPTNLRIEYQDGKFRLDSIICVKSKLKQFDSVVHLIDYYVQMCKDKRTGPEAPRNGTVHLYLTKPLYTSAPSLQHLCRLTINKCTGAIWGLPLPTRLKDYLEEYKFQV | not soluble
26 | MGHHHHHHSHMVSSNFWFKYPKTCSKVEHFVSILGKCFESPWTTKALSETACEDSEENKQRITGAQTLPKHVSTSSDEGSPSASTPMINKTGFKFSAEKPVIEVPSMTILDKKDGEQAKALFEKVRKFRAHVEDSDLIYKLYVVQTASPFPNQ | not soluble
